Source: patent US20230165967A1 (TAE LIFE SCIENCES, published 2023)
Read-outs that look alike come from different tables or passages of the source.

T1: FcγRIIa (CD32) (Sino Biological, cat #10374-H08H) (UniProt P12318 34-218)
T1 sequence (looked up): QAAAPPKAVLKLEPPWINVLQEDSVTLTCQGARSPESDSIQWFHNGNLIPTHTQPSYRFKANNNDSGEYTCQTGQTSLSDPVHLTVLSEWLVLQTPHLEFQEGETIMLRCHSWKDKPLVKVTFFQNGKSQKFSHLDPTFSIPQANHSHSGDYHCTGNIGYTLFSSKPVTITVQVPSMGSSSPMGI

T2: recombinant human soluble extracellular domain (ECD) of Trop2 (human, UniProt P09758 27-274)
T2 construct: extracellular domain; Bought protein
T2 sequence (looked up): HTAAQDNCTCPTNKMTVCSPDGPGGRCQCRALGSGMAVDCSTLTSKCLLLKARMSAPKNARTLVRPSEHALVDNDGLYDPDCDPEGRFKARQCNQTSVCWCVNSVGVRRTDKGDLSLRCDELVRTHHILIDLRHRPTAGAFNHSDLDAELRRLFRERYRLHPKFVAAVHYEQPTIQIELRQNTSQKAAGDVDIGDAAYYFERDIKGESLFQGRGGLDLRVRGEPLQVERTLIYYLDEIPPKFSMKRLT


How the values were obtained:
[1] = molecular target: T3, recombinant human FcRn (Sino Biological) (human, UniProt P55899 24-297; P61769 21-119); assay: ELISA at pH 6.0: plate coated with recombinant human FcRn, antibody titrated, HRP goat anti-human Fc, OD650
Method: (§1) FcRn binding was evaluated using an enzyme linked immunoassay (ELISA). Briefly, 96-well ELISA plates were coated with of recombinant human FcRn (Sino Biological, Inc, Beijing, China) in 1×PBS (pH 6.0) coating buffer. Subsequently, the plates were washed and blocked with ELISA blocking buffer. […] After washing to remove unbound antibodies, the bound antibodies were detected with horseradish peroxidase (HRP) conjugated goat anti-human Fc-specific polyclonal antibody (Jackson ImmunoResearch, West Grove, Pa.). After washing to remove unbound detection antibody, a slow kinetic substrate solution of tetramethylbenzidine (TMB) was added to the wells where color develops in proportion to the amount of testing samples. The optical density (OD) of the color was measured at 650 nm and was used for determination of the amount of testing samples bound to FcRn. Detectable binding of antibodies over the range of test concentrations was analyzed using the one-site binding, nonlinear regression analysis with GraphPad Prism.

[2] = molecular target: T4, recombinant human soluble ECD of CD64/FCGRIA (human, UniProt P12314 16-292); assay: ELISA: plate coated with recombinant human CD64/FCGRIA ECD, antibody titrated, HRP goat anti-human Fc, OD650
T4 construct: extracellular domain; also called FcγRI
T4 sequence (P12314 16-292): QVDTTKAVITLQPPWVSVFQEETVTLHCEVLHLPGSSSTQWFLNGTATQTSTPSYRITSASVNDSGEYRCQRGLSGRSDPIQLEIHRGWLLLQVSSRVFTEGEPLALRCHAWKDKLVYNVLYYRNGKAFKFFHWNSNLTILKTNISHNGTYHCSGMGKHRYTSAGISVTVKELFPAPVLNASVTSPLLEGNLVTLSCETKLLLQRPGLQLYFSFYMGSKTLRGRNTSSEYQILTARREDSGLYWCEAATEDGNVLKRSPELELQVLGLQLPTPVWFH
Method: (§2) FcγRI binding was evaluated using an enzyme linked immunoassay (ELISA). Briefly, 96-well ELISA plates were coated with recombinant human soluble ECD of CD64/FCGRIA (Sino Biological, Inc. Beijing, China) in 1×PBS (pH7.4) coating buffer. Subsequently the plates were washed and blocked with ELISA blocking buffer. […] After washing to remove unbound antibodies, the bound antibodies were detected with horseradish peroxidase (HRP) conjugated goat anti-human Fc-specific polyclonal antibody (Jackson ImmunoResearch, West Grove, Pa.). After washing to remove the unbound detection antibody, a slow kinetic substrate solution of tetramethylbenzidine (TMB) was added to the wells where color develops in proportion to the amount of testing samples. The optical density (OD) of the color was measured at 650 nm and was used for determination of the amount of testing samples bound to FcγRI. Detectable binding of antibodies over the range of test concentrations was analyzed using the one-site binding, nonlinear regression analysis with GraphPad Prism.

[3] = molecular target: T5, recombinant human soluble ECD of hCD16a/FCGRIIIA (human, UniProt P08637 17-208); assay: ELISA: plate coated with recombinant human CD16a/FCGRIIIA ECD, antibody titrated 0.005-80 ug/ml, HRP goat anti-human Fc, OD650
T5 construct: extracellular domain; also called FcγRIIIa
T5 sequence (P08637 17-208): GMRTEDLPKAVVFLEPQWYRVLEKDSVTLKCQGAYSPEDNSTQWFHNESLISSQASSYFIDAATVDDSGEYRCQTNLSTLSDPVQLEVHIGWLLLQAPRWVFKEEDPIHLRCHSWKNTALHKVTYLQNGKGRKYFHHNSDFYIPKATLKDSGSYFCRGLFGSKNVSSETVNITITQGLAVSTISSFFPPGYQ
Method: FcγRIIIa binding was evaluated using an enzyme linked immunoassay (ELISA). Briefly, 96-well ELISA plates were coated with of recombinant human soluble ECD of hCD16a/[sequence] (Sino Biological, Inc, Beijing, China) in 1×PBS (pH7.4) coating buffer. Subsequently the plates were washed and blocked with ELISA blocking buffer. […] After washing to remove unbound antibodies, the bound antibodies were detected with horseradish peroxidase (HRP) conjugated goat anti-human Fc-specific polyclonal antibody (Jackson ImmunoResearch, West Grove, Pa.). After washing to remove unbound detection antibody, a slow kinetic substrate solution of tetramethylbenzidine (TMB) was added to the wells where color develops in proportion to the amount of testing samples. The optical density (OD) of the color was measured at 650 nm and was used for determination of the amount of testing samples bound to FcγRIIa. Detectable binding of antibodies over the range of test concentrations was analyzed using the one-site binding, nonlinear regression analysis with GraphPad Prism.

[4] = molecular target: human C1q (sigma Cat #C1740) (human, UniProt P02745 23-245; P02746 28-253; P02747 29-245); assay: ELISA: plate coated with antibody at 1 ug/ml, human C1q titrated 0.625-40 ug/ml, rabbit anti-human C1q then HRP goat anti-rabbit, OD650
Chain of human C1q (sigma Cat #C1740) (P02745 23-245 limits assumed, chain 1 of 3): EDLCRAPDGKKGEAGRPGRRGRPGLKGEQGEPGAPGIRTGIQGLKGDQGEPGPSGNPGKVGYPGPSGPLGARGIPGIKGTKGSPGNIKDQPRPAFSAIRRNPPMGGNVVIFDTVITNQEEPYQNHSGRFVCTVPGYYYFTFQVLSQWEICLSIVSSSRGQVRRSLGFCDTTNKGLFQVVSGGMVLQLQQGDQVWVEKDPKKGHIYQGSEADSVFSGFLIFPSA
Chain of human C1q (sigma Cat #C1740) (P02746 28-253 limits assumed, chain 2 of 3): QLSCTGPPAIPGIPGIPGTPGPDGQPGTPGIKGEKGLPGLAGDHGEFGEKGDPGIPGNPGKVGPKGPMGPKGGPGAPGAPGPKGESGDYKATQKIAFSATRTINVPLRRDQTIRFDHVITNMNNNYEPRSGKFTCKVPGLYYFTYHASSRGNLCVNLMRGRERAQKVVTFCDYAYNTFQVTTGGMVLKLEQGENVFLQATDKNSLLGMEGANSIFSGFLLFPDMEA
Chain of human C1q (sigma Cat #C1740) (P02747 29-245 limits assumed, chain 3 of 3): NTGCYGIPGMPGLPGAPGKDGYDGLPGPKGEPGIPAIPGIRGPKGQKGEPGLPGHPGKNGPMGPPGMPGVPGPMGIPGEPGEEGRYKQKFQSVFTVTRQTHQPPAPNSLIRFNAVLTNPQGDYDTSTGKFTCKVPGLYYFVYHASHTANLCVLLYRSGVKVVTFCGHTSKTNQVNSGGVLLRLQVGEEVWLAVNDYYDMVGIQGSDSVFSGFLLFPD
Method: Subsequently the plates were washed and blocked with ELISA blocking buffer (PBS containing 1% BSA). […] A slow kinetic substrate solution of tetramethylbenzidine (TMB) was added and the optical density (OD) of the color was measured at 650 nm. The data representing detectable binding of antibodies over the range of test concentrations was analyzed by one-site binding nonlinear regression analysis using GraphPad Prism software.

[5] = molecular target: T4, recombinant human soluble ECD of …; assay: ELISA: plate coated with recombinant human CD64/FCGRIA ECD, antibody titrated, HRP goat anti-human Fc, OD650; remark: listed apart in the source
Method: as §2

[6] = molecular target: T1, FcγRIIa (CD32) (Sino Biological, cat …); assay: Sandwich ELISA: anti-His capture of His-tagged FcγRIIA mixed with titrated antibody, HRP goat anti-human IgG Fc, OD650
Method: Binding of antibodies to the low affinity FcγRIIA receptor was determined by a modified sandwich format ELISA. […] Wells were then blocked with PBS containing BSA. […] After washing with PBS, a 1:3,000 dilution of horseradish peroxidase (HRP)-labeled goat anti-hIgG Fc, JacksonImmunoResearch) in PBS-T plus 1% BSA was added to detect His-tag captured FcγRIIA and Mab complexes. The results were visualized by the addition of tetramethylbenzidine (TMB) and the optical density (OD) measured at 650 nm. Data representing detectable binding of antibodies to FcγRIIA and captured by anti-his tag Abs over the range of Fc variant test concentrations was analyzed by one-site binding nonlinear regression analysis using GraphPad Prism software.

[7] = molecular target: T3, recombinant human FcRn (Sino Biological); assay: ELISA at pH 6.0: plate coated with recombinant human FcRn, antibody titrated, HRP goat anti-human Fc, OD650; remark: listed apart in the source
Method: as §1

[8] = molecular target: T2, recombinant human soluble extracellular …; assay: ELISA: plate coated with recombinant human Trop2 ECD, antibody titrated 0.0003-20 nM, HRP goat anti-human Fc, OD650
Method: Target antigen binding was evaluated using an enzyme linked immunoassay (ELISA). Briefly, 96-well ELISA plates were coated with 0.05-0.075 ug of recombinant human soluble extracellular domain (ECD) of Her2/ErbB2 or EGFR or Trop2 (Sino Biologicals, Inc, Beijing, China) or 0.075 ug of recombinant human CDH3 full-length (Abnova, Taiwan). Subsequently, the plates were washed and blocked with ELISA blocking buffer. […] After washing to remove unbound detection antibody, a slow kinetic substrate solution of tetramethylbenzidine (TMB) was added to the wells where color develops in proportion to the amount of testing samples. The optical density (OD) of the color was measured at 650 nm and was used for determination of the amount of testing samples bound to the target antigen. Detectable binding of antibodies over the range of test concentrations was analyzed using the one-site binding, nonlinear regression analysis with GraphPad Prism.

[9] = molecular target: T5, recombinant human soluble ECD of …; assay: ELISA: plate coated with recombinant human CD16a/FCGRIIIA ECD, antibody titrated 0.005-80 ug/ml, HRP goat anti-human Fc, OD650; remark: listed apart in the source

Binder	EC50 (read off the curve) [2] [µg/mL]	binding result [4]	binding result [6]	binding result [7]	EC50 (read off the curve) [8] [nM]	other results
Anti-EGFR Ab No. 3 Wild Type (antibody, human IgG1, human IgG1 constant region; also called Anti-EGFR Mab No. 3; anti-EGFR mAb No. 3) heavy: not shown light: DIQMTQSPSSLSASVGDRVTITCRSSQNIVHSNGNTYLDWYQQTPGKAPKLLIYKVSNRFSGVPSRFSGSGSGTDFTFTISSLQPEDIATYYCFQYSHVPWTFGQGTKLQITREVAAPSVFIFPPSDEQLKSGTASVVCLLNNFYPREAKVQWKVDNALQSGNSQESVTEQDSKDSTYSLSSTLTLSKADYEKHKVYACEVTHQGLSSPVTKSFNRGEC	~0.05	–	–	–	–	binding result [1]: binds; EC50 (read off the curve) [3]: ~2 µg/mL
Anti-EGFR Ab No. 3 L234A, L235A, L328C (antibody, human IgG1, L234A L235A, Fc variant; wild-type light chain, this heavy chain reads VDKRV where the wild type reads VDKKV; also called Anti-EGFR Mab No. 3 triple mutant; triple mutation L234A, L235A, and L328C) heavy: QVQLQQSGAEVKKPGSSVKVSCKASGYTFTNYYIYWVRQAPGQGLEWIGGINPTSGGSNFNEKFKTRVTITADESSTTAYMELSSLRSEDTAFYFCTRQGLWFDSDGRGFDFWGQGTTVTVSSASTKGPSVFPLAPSSKSTSGGTAALGCLVKDYFPEPVTVSWNSGALTSGVHTFPAVLQSSGLYSLSSVVTVPSSSLGTQTYICNVNHKPSNTKVDKRVEPKSCDKTHTCPPCPAPEAAGGPSVFLFPPKPKDTLMISRTPEVTCVVVDVSHEDPEVKFNWYVDGVEVHNAKTKPREEQYNSTYRVVSVLTVLHQDWLNGKEYKCKVSNKACPAPIEKTISKAKGQPREPQVYTLPPSREEMTKNQVSLTCLVKGFYPSDIAVEWESNGQPENNYKTTPPVLDSDGSFFLYSKLTVDKSRWQQGNVFSCSVMHEALHNHYTQKSLSLSPGK light: DIQMTQSPSSLSASVGDRVTITCRSSQNIVHSNGNTYLDWYQQTPGKAPKLLIYKVSNRFSGVPSRFSGSGSGTDFTFTISSLQPEDIATYYCFQYSHVPWTFGQGTKLQITREVAAPSVFIFPPSDEQLKSGTASVVCLLNNFYPREAKVQWKVDNALQSGNSQESVTEQDSKDSTYSLSSTLTLSKADYEKHKVYACEVTHQGLSSPVTKSFNRGEC	–	–	–	–	–	binding result [3]: no binding (tested: 80 ug/mL)
Anti-EGFR Ab No. 3 L234A, L235A (antibody, human IgG1, L234A L235A, Fc variant; wild-type light chain; also called Anti-EGFR Mab No. 3 double mutant; double mutation L234A and L235A) heavy: not shown light: DIQMTQSPSSLSASVGDRVTITCRSSQNIVHSNGNTYLDWYQQTPGKAPKLLIYKVSNRFSGVPSRFSGSGSGTDFTFTISSLQPEDIATYYCFQYSHVPWTFGQGTKLQITREVAAPSVFIFPPSDEQLKSGTASVVCLLNNFYPREAKVQWKVDNALQSGNSQESVTEQDSKDSTYSLSSTLTLSKADYEKHKVYACEVTHQGLSSPVTKSFNRGEC	~4	–	–	–	–	binding result [1]: binds
Anti-Trop2 Ab L328C (antibody, human IgG1, kappa, Fc variant; wild-type light chain; also called Anti-Trop2 Mab single mutant; single mutation L328C) heavy: not shown light: DIQLTQSPSSLSASVGDRVSITCKASQDVSIAVAWYQQKPGKAPKLLIYSASYRYTGVPDRFSGSGSGTDFTLTISSLQPEDFAVYYCQQHYITPLTFGAGTKVEIKRTVAAPSVFIFPPSDEQLKSGTASVVCLLNNFYPREAKVQWKVDNALQSGNSQESVTEQDSKDSTYSLSSTLTLSKADYEKHKVYACEVTHQGLSSPVTKSFNRGEC	–	binds	binds	binds	~0.06	EC50 (read off the curve) [5]: ~0.2 µg/mL
Anti-Trop2 Ab L234A, L235A, L328C (antibody, human IgG1, kappa, L234A L235A, Fc variant; wild-type light chain; also called Anti-Trop2 Mab triple mutant; triple mutation L234A, L235A, and L328C) heavy: QVQLQQSGSELKKPGASVKVSCKASGYTFTNYGMNWVKQAPGQGLKWMGWINTYTGEPTYTDDFKGRFAFSLDTSVSTAYLQISSLKADDTAVYFCARGGFGSSYWYFDVWGQGSLVTVSSASTKGPSVFPLAPSSKSTSGGTAALGCLVKDYFPEPVTVSWNSGALTSGVHTFPAVLQSSGLYSLSSVVTVPSSSLGTQTYICNVNHKPSNTKVDKRVEPKSCDKTHTCPPCPAPEAAGGPSVFLFPPKPKDTLMISRTPEVTCVVVDVSHEDPEVKFNWYVDGVEVHNAKTKPREEQYNSTYRVVSVLTVLHQDWLNGKEYKCKVSNKACPAPIEKTISKAKGQPREPQVYTLPPSREEMTKNQVSLTCLVKGFYPSDIAVEWESNGQPENNYKTTPPVLDSDGSFFLYSKLTVDKSRWQQGNVFSCSVMHEALHNHYTQKSLSLSPGK light: DIQLTQSPSSLSASVGDRVSITCKASQDVSIAVAWYQQKPGKAPKLLIYSASYRYTGVPDRFSGSGSGTDFTLTISSLQPEDFAVYYCQQHYITPLTFGAGTKVEIKRTVAAPSVFIFPPSDEQLKSGTASVVCLLNNFYPREAKVQWKVDNALQSGNSQESVTEQDSKDSTYSLSSTLTLSKADYEKHKVYACEVTHQGLSSPVTKSFNRGEC	–	binds	binds	binds	~0.06	binding result [5]: no binding (tested: 30 ug/ml); binding result [9]: no binding (tested: 80 ug/ml)

Continued, in another order:

EC50 (read off the curve) [2] [µg/mL]	binding result [4]	binding result [6]	binding result [7]	EC50 (read off the curve) [8] [nM]	Binder	other results
~0.1	–	–	–	–	Anti-EGFR Ab No. 3 L328C (antibody, human IgG1, Fc variant; wild-type light chain, this heavy chain reads VDKRV where the wild type reads VDKKV; also called Anti-EGFR Mab No. 3 single mutant; single mutation L328C) heavy: not shown light: DIQMTQSPSSLSASVGDRVTITCRSSQNIVHSNGNTYLDWYQQTPGKAPKLLIYKVSNRFSGVPSRFSGSGSGTDFTFTISSLQPEDIATYYCFQYSHVPWTFGQGTKLQITREVAAPSVFIFPPSDEQLKSGTASVVCLLNNFYPREAKVQWKVDNALQSGNSQESVTEQDSKDSTYSLSSTLTLSKADYEKHKVYACEVTHQGLSSPVTKSFNRGEC	–
–	binds	binds	binds	~0.06	Anti-Trop2 Ab Wild Type (antibody, human IgG1, kappa, human IgG1 constant region; also called Anti-Trop2 Mab; anti-TROP2 mAb) heavy: not shown light: DIQLTQSPSSLSASVGDRVSITCKASQDVSIAVAWYQQKPGKAPKLLIYSASYRYTGVPDRFSGSGSGTDFTLTISSLQPEDFAVYYCQQHYITPLTFGAGTKVEIKRTVAAPSVFIFPPSDEQLKSGTASVVCLLNNFYPREAKVQWKVDNALQSGNSQESVTEQDSKDSTYSLSSTLTLSKADYEKHKVYACEVTHQGLSSPVTKSFNRGEC	EC50 (read off the curve) [5]: ~0.08 µg/mL; EC50 (read off the curve) [9]: ~2 µg/mL
–	binds	binds	–	~0.06	Anti-Trop2 Ab L234A, L235A (antibody, human IgG1, kappa, L234A L235A, Fc variant; wild-type light chain; also called Anti-Trop2 Mab double mutant; double mutation L234A and L235A) heavy: not shown light: DIQLTQSPSSLSASVGDRVSITCKASQDVSIAVAWYQQKPGKAPKLLIYSASYRYTGVPDRFSGSGSGTDFTLTISSLQPEDFAVYYCQQHYITPLTFGAGTKVEIKRTVAAPSVFIFPPSDEQLKSGTASVVCLLNNFYPREAKVQWKVDNALQSGNSQESVTEQDSKDSTYSLSSTLTLSKADYEKHKVYACEVTHQGLSSPVTKSFNRGEC	binding result [5]: binds; EC50 (read off the curve) [7]: ~1 µg/mL
